In publication PMC9201380, “Structural Characterization of a Neutralizing Nanobody With Broad Activity Against SARS-CoV-2 Variants” (Frontiers in Microbiology, 2022):

Molecular target: SARS-CoV-2 S receptor-binding domain (residues 330-531), Avi-tagged and biotinylated (SARS-CoV-2, UniProt P0DTC2)
Assay: BLI; Octet RED96; biotinylated RBD (2 μg mL^-1) immobilized on SA sensor; DL28 as analyte at 2, 5, 10 and 20 nM; 30°C; 1x PBS, 0.05% Tween 20; association 360 s, dissociation 600 s; 1:1 fit
Settings: both partners purified

B1: DL28 (monovalent nanobody) (VHH)
VHH: QVQLQESGGGLVQAGGSLRLSCAASGSDFSSSTMGWYRQAPGKQREFVAISSEGSTSYAGSVKGRFTISRDNAKNTVYLQMNSLEPEDTAVYYCNVVDRWYDYWGQGTQVTVSA
notes: also called monovalent DL28
Binder B1 has a Kd of 1.56 nM.
